Measured values taken from US20240026037A1 (Memorial Sloan Kettering, published 2024).

Experiments:
[1] = target: T1, Human GPA33 (recombinant protein, Novoprotein) (human, UniProt Q99795 22-235); assay: SPR
T1 construct: Bought recombinant protein immobilized on a CM5 chip; also called GPA33 antigen; tumor antigen GPA33
T1 sequence: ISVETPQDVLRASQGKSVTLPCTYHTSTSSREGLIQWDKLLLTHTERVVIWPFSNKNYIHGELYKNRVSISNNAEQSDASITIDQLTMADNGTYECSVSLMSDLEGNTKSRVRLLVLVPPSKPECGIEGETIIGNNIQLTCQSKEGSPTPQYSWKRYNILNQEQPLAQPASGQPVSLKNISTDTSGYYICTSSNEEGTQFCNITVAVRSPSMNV
Summary of the method: (§1)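 On a Biacore system, antibodies at five concentrations (2-fold serial dilutions, highest 20 nM) were passed over recombinant human GPA33 (Novoprotein) immobilised on a CM5 sensor chip. Rate constants and the dissociation constant (KD) came from kinetic fitting of the surface plasmon resonance sensorgrams. Each KD is expressed relative to the KD of a reference molecule, as a ratio.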

[2] = target: T1, Human GPA33 (recombinant protein, …); assay: SPR (Biacore), human GPA33 immobilized on CM5 chip, two-state fit, kd1
Summary of the method: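 The off-rate (kd1) came from surface plasmon resonance, with sensorgrams fitted to a two-state binding model to derive the kinetic parameters. Recombinant human GPA33 from Novoprotein was immobilised on a CM5 chip in a Biacore T100. Antibodies were flowed over at five concentrations, made as 2-fold serial dilutions starting at 20 nM. The parent IgG1 was run at 25° C, and the bispecific formats at both 25° C and 37° C.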

[3] = target: T1, Human GPA33 (recombinant protein, …); assay: SPR (Biacore), human GPA33 immobilized on CM5 chip, two-state fit
Summary of the method: (§2)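 GPA33 immobilized on CM5 chip; five 2-fold dilutions of huA33 IgG1 or huA33 bispecifics from 20 nM injected. Kinetics measured at 25 °C for huA33, at both 25 °C and 37 °C for bispecifics; sensorgrams fitted to a two-state binding model.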

[4] = target: T2, Human GPA33 on GPA33+ colorectal cancer cell lines (Colo 205, LS 174T, SW 1222) (human, UniProt Q99795 22-319); assay: FACS titration on Colo205 cells, geometric mean MFI (the text prints 2.46 nM and calls it IC50)
T2 construct: Endogenous GPA33 on human colorectal cancer cell lines; also called surface human GPA33; GPA33+ tumor cell lines
T2 sequence: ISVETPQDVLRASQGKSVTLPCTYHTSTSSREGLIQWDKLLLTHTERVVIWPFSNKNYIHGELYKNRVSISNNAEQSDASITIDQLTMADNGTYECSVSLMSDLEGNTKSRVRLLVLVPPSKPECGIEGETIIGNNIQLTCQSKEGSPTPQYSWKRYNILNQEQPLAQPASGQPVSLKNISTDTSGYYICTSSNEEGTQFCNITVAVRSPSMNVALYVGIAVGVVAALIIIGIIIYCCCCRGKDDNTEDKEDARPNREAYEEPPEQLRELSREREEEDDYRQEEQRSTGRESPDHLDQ

[5] = target: T2, Human GPA33 on GPA33+ colorectal cancer …; assay: flow cytometry, Colo 205 cells; Colo 205 cells
[6] = target: T2, Human GPA33 on GPA33+ colorectal cancer …; assay: FACS binding to Colo205 cells (GPA33+)
[7] = target: T2, Human GPA33 on GPA33+ colorectal cancer …; assay: FACS binding to SW1222 cells (GPA33+)
[8] = target: T2, Human GPA33 on GPA33+ colorectal cancer …; assay: flow cytometry, LS 174T cells
[9] = target: T2, Human GPA33 on GPA33+ colorectal cancer …; assay: flow cytometry, SW 1222 cells
[10] = target: T2, Human GPA33 on GPA33+ colorectal cancer …; assay: FACS binding to Colo205 cells (GPA33+); the text prints 2.46 nM for this pair
[11] = target: T1, Human GPA33 (recombinant protein, …); assay: SPR (Biacore), human GPA33 immobilised on the chip; KD relative to that of TC170
Summary of the method: as §1

[12] = target: T1, Human GPA33 (recombinant protein, …); assay: SPR (Biacore), human GPA33 immobilized on CM5 chip, two-state fit, ka1
Summary of the method: as §2

[13] = target: T2, Human GPA33 on GPA33+ colorectal cancer …; assay: FACS binding to LS174T cells (GPA33+)
[14] = target: T1, Human GPA33 (recombinant protein, …); assay: SPR (Biacore), human GPA33 immobilized on CM5 chip, IgG format
Description: (§3) SPR analysis. Human GPA33 (Novoprotein, Summit, NJ) was immobilized on CM5 chips. Five concentrations of 2-fold serially diluted huA33 IgG1 or huA33-BsAbs (starting at 20 nM) were flowed over the chip using a Biacore™ T100 system (GE Healthcare, Chicago, IL). Binding kinetics of huA33 were measured at 25° C. and binding kinetics of huA33-BsAbs were measured at both 25° C. and 37° C. The sensorgrams were fitted with two state binding model for both to derive kinetic parameters.

[15] = target: T2, Human GPA33 on GPA33+ colorectal cancer …; assay: cell binding to LS174T Luc cells; IgG format
[16] = target: T2, Human GPA33 on GPA33+ colorectal cancer …; assay: cell binding to SW1222 Luc cells; IgG format
[17] = target: T1, Human GPA33 (recombinant protein, …); assay: SPR (Biacore), human GPA33 immobilised on the chip; KD relative to that of BC015
Summary of the method: as §1

[18] = target: T1, Human GPA33 (recombinant protein, …); assay: SPR (Biacore) on immobilized GPA33, 25 C per legend paragraph 44; two-state fit
Description: as §3

[19] = target: T1, Human GPA33 (recombinant protein, …); assay: SPR (Biacore) on immobilized GPA33, 25 C per legend paragraph 44; column kd1 of the two-state fit
Description: as §3

[20] = target: T2, Human GPA33 on GPA33+ colorectal cancer …; assay: FACS titration on SW1222 cells, geometric mean MFI [Cont.]
[21] = target: T2, Human GPA33 on GPA33+ colorectal cancer …; assay: FACS titration on LS174T cells, geometric mean MFI [Cont.]
[22] = target: T1, Human GPA33 (recombinant protein, …); assay: SPR (Biacore), human GPA33 immobilised on the chip; two-state fit (ka1, kd1, ka2, kd2); temperature not given on the sheet
Description: as §3

[23] = target: T1, Human GPA33 (recombinant protein, …); assay: SPR (Biacore) on immobilized GPA33, 25 C per legend paragraph 44; column ka1 of the two-state fit
Description: as §3

[24] = target: T2, Human GPA33 on GPA33+ colorectal cancer …; assay: FACS titration on Colo205 cells, geometric mean MFI

B1: TC159 (bispecific antibody)
chain: EVQLVESGGGLVKPGGSLRLSCAASGFAFSTYDMSWVRQAPGKRLEWVATISSGGSYTYYLDSVKGRFTISRDNAKNSLYLQMNSLRAEDTAVYYCAPTTVVPFAYWGQGTLVTVSSGGGGSGGGGSGGGGSGGGGSGGGGSGGGGSDIQMTQSQSSLSTSVGDRVTITCKASQNVRTVVAWYQQKPGKSPKTLIYLASNRHTGVPSRFSGSGSGTEFTLTISNVQPEDFADYFCLQHWSYPLTFGSGTKLEIKRGGGGSGGGGSGGGGSGGGGSHVQLVESGGGLVQPGGSLRLSCAASGFSLTDYGVHWVRQAPGKGLEWLGVIWSGGGTAYNTALISRFTISRDNSKNTLYLQMNSLRAEDTAVYYCARRGSYPYNYFDAWGCGTLVTVSSGGGGSGGGGSGGGGSGGGGSGGGGSGGGGSQAVVTQEPSLTVSPGGTVTLTCGSSTGAVTASNYANWVQQKPGQCPRGLIGGHNNRPPGVPARFSGSLLGGKAALTLLGAQPEDEAEYYCALWYSDHWVIGGGTKLTVLGTPLGDTTHTSGKPLDGEYFTLQIRGRERFEMFRELNEALELKDAQAGKEPGGSGGAPHHHHHH
notes: Previously described GPA33xDOTA SADA clone whose GPA33 scFv comes from another clone; Carries the p53 SADA (tetramerization) domain
fold higher affinity than TC160 [1]: 3 fold
koff [2]: 0.00181 s⁻¹
Kd [3]: 0.0216 nM
ka2 [3]: 0.00613 s⁻¹
kd2 [3]: 0.000315 s⁻¹
EC50 [4]: 2.47 nM
EC50 [5]: 2.46 nM
fold change of binding EC50 (relative to TC170, lower is better) [6]: 3.34
fold change of binding EC50 (relative to TC170, lower is better) [7]: 0.24
IC50 [8]: 1.22 nM
IC50 [9]: 0.4 nM
EC50 [10]: 2.47 nM
Fold change of KD (relative to TC170, lower is better) [11]: 1.4
kon [12]: 4.09e+06 M⁻¹ s⁻¹
fold change of binding EC50 (relative to TC170, lower is better) [13]: 3.94

B2: Humanized A33 antibody with variable heavy chain VH1 and variable light chain VK4 (antibody, IgG1, V domains shown)
VH: EVQLVESGGGLVKPGGSLRLSCAASGFAFSTYDMSWVRQAPGKGLEWVSTISSGGSYTYYADSVKGRFTISRDNAKNSLYLQMNSLRAEDTAVYYCAPTTVVPFAYWGQGTLVTVSA
VL: DIQMTQSPSSLSASVGDRVTITCKASQNVRTVVAWYQQKPGKAPKTLIYLASNRHTGVPSRFSGSGSGTEFTLTISNLQPEDFATYYCLQHWSYPLTFGSGTKLEVK
notes: Mouse A33 was humanized as IgG1 and tested in IgG format; also called VH1/VK4; huA33 IgG1
Kd [14]: 0.168 nM
EC50 [15]: 0.503 mg/L
EC50 [16]: 0.466 mg/L

B3: BC016 (G3A H3L3) (bispecific antibody, human IgG1, kappa, N297A)
heavy: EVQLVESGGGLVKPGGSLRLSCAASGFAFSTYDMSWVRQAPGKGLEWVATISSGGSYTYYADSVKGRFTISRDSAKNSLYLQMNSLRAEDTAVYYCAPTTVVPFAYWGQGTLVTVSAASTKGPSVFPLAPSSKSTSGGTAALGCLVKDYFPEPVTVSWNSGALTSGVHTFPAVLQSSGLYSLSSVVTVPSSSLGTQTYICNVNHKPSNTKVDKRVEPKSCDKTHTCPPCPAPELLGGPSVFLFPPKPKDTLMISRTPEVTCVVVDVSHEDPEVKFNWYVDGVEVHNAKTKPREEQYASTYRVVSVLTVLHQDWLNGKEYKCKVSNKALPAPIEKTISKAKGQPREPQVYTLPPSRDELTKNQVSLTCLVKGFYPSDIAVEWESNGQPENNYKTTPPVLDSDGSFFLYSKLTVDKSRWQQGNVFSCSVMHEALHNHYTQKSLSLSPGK
light: DIQMTQSPSSLSTSVGDRVTITCKASQNVRTVVAWYQQKPGKAPKTLIYLASNRHSGVPSRFSGSGSGTEFTLTISNLQPEDFATYYCLQHWSYPLTFGSGTKLEVKRTVAAPSVFIFPPSDEQLKSGTASVVCLLNNFYPREAKVQWKVDNALQSGNSQESVTEQDSKDSTYSLSSTLTLSKADYEKHKVYACEVTHQGLSSPVTKSFNRGECTSGGGGSGGGGSGGGGSHVQLVESGGGLVQPGGSLRLSCAASGFSLTDYGVHWVRQAPGKGLEWLGVIWSGGGTAYNTALISRFTISRDNSKNTLYLQMNSLRAEDTAVYYCARRGSYPYNYFDAWGCGTLVTVSSGGGGSGGGGSGGGGSGGGGSGGGGSGGGGSQAVVTQEPSLTVSPGGTVTLTCGSSTGAVTASNYANWVQQKPGQCPRGLIGGHNNRPPGVPARFSGSLLGGKAALTLLGAQPEDEAEYYCALWYSDHWVIGGGTKLTVLG
notes: GPA33xDOTA IgG-[L]-scFv; The anti-DOTA scFv is fused to the C-terminus of the light chain
Fold change of KD (relative to BC015, lower is better) [17]: 0.07
Kd [18]: 0.00792 nM
koff [19]: 0.000511 s⁻¹
EC50 [20]: 0.35 nM
EC50 [21]: 0.65 nM
Kd [22]: 0.00792 nM
kon [23]: 5.5e+06 M⁻¹ s⁻¹
EC50 [24]: 0.74 nM
